Laboratory results as given in patent US20190270815A1 (WUXI BIOLOGICS IRELAND, published 2019).
Changes are numbered by the printed parent chain.

T1: murine PD-1 (Sino biological) (murine, UniProt Q02242 25-167, limits assumed)
T1 sequence (looked up): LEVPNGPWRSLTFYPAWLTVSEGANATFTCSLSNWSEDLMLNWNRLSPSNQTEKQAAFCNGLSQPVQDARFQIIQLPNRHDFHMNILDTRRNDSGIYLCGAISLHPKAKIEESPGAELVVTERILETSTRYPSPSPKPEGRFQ

B1: 1.139.15 hAb (antibody, V domains shown)
VH: QLQLQESGPGLVKPSETLSLTCTVSGGSISSTTYYWGWIRQPPGKGLEWIGSISYSGTTYYNPSLKSRVTIPVDTSKNQISLKLSSVTAADTSLYYCARHLGYNSNWYPFDYWGQGTLVTVSS
VL: QSALTQPPSVSGSPGQSVTISCTGTSSDVGSYNRVSWYQQPPGTAPEVIIYEVSNRPSGVPDRFSGSKSGNTASLTISGLQAEDEADYYCSSYTSSSTWVFGGGTKLTVL
notes: fully human monoclonal antibody with a human constant region of IgG4 isotype
B2: 1.153.7 hAb (antibody, V domains shown)
VH: EVQLLESGGGLVQPGGSLRLSCAASGFTFSSHAMSWVRQAPGKGLEWVSTITGGGGSIYYADSVKGRFTISRDNSKNTLYLQMNSLRAEDTAVYYCAKNRAGEGYFDYWGQGTLVTVSS
VL: SYELTQPLSVSVALGQTARITCGGDNIGNKDVHWYQQKPGQAPVLVIYRDSNRPSGIPEGFSGSNSGNTATLTISRAQAGDEADYYCQVWDSIWVFGGGTKLTVL
notes: as for B1
B3: 1.7.3 hAb (antibody, V domains shown)
VH: QLQLQESGPGLVKPSETLTLTCTVSGDSISSTTYYWVWIRQPPGKGLEWIGSISYSGNTYYNPSLKSRVTISVDTSKNHFSLKLSSVAATDTALYYCARHLGYNGRYLPFDYWGQGTLVTVSS
VL: QSALTQPASVSGSPGQSITISCTGTSSDVGFYNYVSWYQQHPGKAPELMIYDVTNRPSGVSDRFSGSKSGNTASLTISGLQAEDEADYYCSSYTSISTWVFGGGTKLTVL
notes: as for B1
B4: 1.103.11-v2 hAb (antibody, IgG4, V domains shown)
VH: B3 VH with G26A, N58S, I71V, H79Q, S85N
VL: B3 VL with T54S
notes: human constant region of IgG4 isotype
B5: 1.49.9 hAb (antibody, V domains shown)
VH: B3 VH with T19S, D27G, T32S, V37G, N58S, H79Q, A88T, A89D, T90A, L94V
VL: B3 VL with L48V, T54S
notes: as for B1

Experiments:
[1] = target: T2, human PD-1 expressed on cells (human, UniProt Q15116 25-288); assay: FACS on CHO-S cells expressing human PD-1
T2 construct: whole, on cells; also called PD-1 expressing CHO cell; PD-1 transfected CHO-S cells
Experimental: (§1) 3.1 Binding affinity of PD-1 antibodies to cell surface PD-1 molecules tested by flow cytometry (FACS): Antibody binding affinity to cell surface PD-1 was performed by FACS analysis. CHO-S cells expressing human PD-1 were transferred in to 96-well U-bottom plates (BD) at a density of 5×10⁵ cells/ml. Tested antibodies were 1:2 serially diluted in wash buffer (1×PBS/1% BSA) and incubated with cells at 4° C. for 1 h. The secondary antibody goat anti-human IgG Fc FITC (3.0 moles FITC per mole IgG, (Jackson Immunoresearch Lab) was added and incubated at 4° C. in the dark for 1 h. The cells were then washed once and resuspended in 1×PBS/1% BSA, and analyzed by flow cytometery (BD). Fluorescence intensity will be converted to bound molecules/cell based on the quantitative beads Quantum™ MESF Kits, Bangs Laboratories, Inc.). KD was calculated using Graphpad Prism5.

[2] = target: T1, murine PD-1 (Sino biological); assay: ELISA on plate-coated murine PD-1
Experimental: 3.3.1 Cross-reactivity to cynomolgus PD-1 and murine PD-1: Cross-reactivity was measured by ELISA. Plates (Nunc) were coated with cynomolgus PD-1 (Sino Biological) and murine PD-1 (Sino biological) at 1 μg/ml overnight at 4° C. After blocking and washing, […] antibodies were added to the plates and incubated at room temperature for 1 h. The plates were then washed and subsequently incubated with secondary antibody goat anti rat IgG1 HRP (Bethyl) and goat anti rat IgG2b HRP (Bethyl) for 45 min. After washing, TMB substrate was added and the interaction was stopped by 2M HCl. The absorbance at 450 nm was read using a microplate reader (Molecular Device).

[3] = target: T2, human PD-1 expressed on cells; assay: FACS on CHO-S cells expressing human PD-1, antibody in formulation buffer
Experimental: as §1

[4] = target: T2, human PD-1 expressed on cells; assay: FACS on CHO-S cells expressing human PD-1, antibody in 1xPBS pH 7.4
Experimental: as §1

T2 sequence (Q15116 25-288): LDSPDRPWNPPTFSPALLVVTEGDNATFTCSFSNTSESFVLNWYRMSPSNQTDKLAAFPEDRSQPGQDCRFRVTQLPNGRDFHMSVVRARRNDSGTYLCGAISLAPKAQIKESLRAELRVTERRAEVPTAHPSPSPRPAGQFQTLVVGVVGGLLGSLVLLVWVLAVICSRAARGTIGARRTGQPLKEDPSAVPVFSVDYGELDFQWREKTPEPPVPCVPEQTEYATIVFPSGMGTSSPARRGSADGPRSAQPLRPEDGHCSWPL

Binder | EC50 [1] | binding result [2] | EC50 [3] | EC50 [4]
B1 | ~2 nM | no binding (tested: 1 g/ml antibodies (so in the source)) | – | –
B2 | ~2 nM | no binding (tested: 1 g/ml antibodies (so in the source)) | – | –
B3 | ~2 nM | no binding (tested: 1 g/ml antibodies (so in the source)) | – | –
B4 | – | – | ~3.12 nM | ~2.52 nM
B5 | ~2 nM | no binding (tested: 1 g/ml antibodies (so in the source)) | – | –
